{
  "source": "patent US9791436",
  "about": "(UNIVERSITY OF QUEENSLAND, dated 2017)",
  "binders": {"B1": {"name": "H6-68-AP-PSA-VHH (other)", "chain": "SSGSKALLKGVRDFNPISACVCLLENSSDGHSERLFGIGFGPYIIANQHLFRRNNGELTIKTMHGEFKVKNSTQLQMKPVEGRDIIVIKMAKDFPPFPQKLKFRQPTIKDRVCMVSTNFQQKSVSSLVSESSHIVHKEDTSFWQHWITTKDGQCGSPLVSIIDGNILGIHSLTHTTNGSNYFVEFPEKFVATYLDAADGWCKNWKFNADKISWGSFILWEDAPGGEHSSKLQSGAGREYVRFAPGGSGGSGGSGGSGGSGGDVQLQESGGGSVQAGGSLRLSCVASGWIYIPPCMAWFRQAPGKERERVATINPSGRTYYADSTKGRFRISQDNVKRTLYLYMNSLKPEDTATYYCAADDGTCPRMEFDDWGQGTQVTVSSGGSHHHHHH"}},
  "molecular_target": "PSA (prostate specific antigen) (UniProt P07288 25-261)",
  "sequence (P07288 25-261 limits assumed)": "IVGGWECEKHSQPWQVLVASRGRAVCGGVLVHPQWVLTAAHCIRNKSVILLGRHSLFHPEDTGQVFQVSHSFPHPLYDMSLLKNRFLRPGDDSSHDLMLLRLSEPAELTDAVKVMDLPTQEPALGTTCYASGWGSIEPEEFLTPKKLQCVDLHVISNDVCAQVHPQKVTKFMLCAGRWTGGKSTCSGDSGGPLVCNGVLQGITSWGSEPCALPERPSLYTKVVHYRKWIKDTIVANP",
  "test": "cell-based or functional assay",
  "data": [
    {"binder": "B1", "values": [
      {"measurement": "sensitivity of the PSA biosensor assay", "value": "2 fold better than the N-terminal VHH configuration"}
    ]}
  ]
}
